Source: patent publication US20260184782A1 (TWIST BIOSCIENCE, published 2026)

Tests used:
human TIGIT-Fc [1] = molecular target: T1, human TIGIT-Fc (human, UniProt Q495A1 22-141, limits assumed); assay: CD155 competition ELISA, titration
T1 construct: not shown: Fc; not described
T1 sequence (looked up): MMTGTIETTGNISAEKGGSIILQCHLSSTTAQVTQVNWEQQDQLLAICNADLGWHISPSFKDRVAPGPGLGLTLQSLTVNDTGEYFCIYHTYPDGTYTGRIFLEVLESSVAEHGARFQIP
Experimental: (§1) TIGIT/CD155 inhibition of VHH-Fcs were assessed using an ELISA assay (Table 10B). Briefly, human TIGIT-Fc was coated on a plate & then incubated with VHH-Fcs and human CD155-biotin. Bound CD155-biotin was detected using a streptavidin-HRP conjugate visualized with TMB. Strong inhibitors from the single point screen were titrated to determine EC50 (Table 10C).

human TIGIT-Fc [2] = molecular target: T1, human TIGIT-Fc; assay: CD155 competition ELISA, single point; note: test concentration or dose not given here
Experimental: as §1

TIGIT = molecular target: T2, TIGIT (UniProt Q495A1 22-141, limits assumed); assay: SPR, VHH-V5-His
T2 construct: also called T cell immunoreceptor with Ig and ITIM domains; hTIGIT
T2 sequence (looked up): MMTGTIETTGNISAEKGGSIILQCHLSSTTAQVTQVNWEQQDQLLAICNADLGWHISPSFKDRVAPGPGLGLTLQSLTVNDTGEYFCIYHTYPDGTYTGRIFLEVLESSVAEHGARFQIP

B1: TIGIT-SC36 (Fc fusion)
VHH: EVQLVESGGGLVQPGGSLRLSCAASGNTFNFNVMGWFRQAPGKEREAVASIWRSGGNTYYADSVKGRFTISADNSKNTAYLQMNSLKPEDTAVYYCARDLEWRPYYMDVWGQGTLVTVSS
notes: VHH-Fc
EC50 (human TIGIT-Fc [1]): 2.08 nM | OD (450 nm) (human TIGIT-Fc [2]): 0.144 OD

B2: TIGIT-SC213 (Fc fusion)
VHH: EVQLVESGGGLVQPGGSLRLSCAASGTFQRINAMGWFRQAPGKEREFVAAIWRSGTLKAYADSVKGRFTISADNSKNTAYLQMNSLKPEDTAVYYCARWVGASGDYWIDYWGQGTLVTVSS
notes: VHH-Fc
OD (450 nm) (human TIGIT-Fc [2]): 0.587 OD

B3: TIGIT-31-06 (VHH-V5-His) (VHH)
VHH: EVQLVESGGGLVQPGGSLRLSCAASGFTFSTSWMGWFRQAPGKERELVASITSGGSTYYADSVKGRFTISADNSKNTAYLQMNSLKPEDTAVYYCAADVWYGSTWRNWGQGTLVTVSS
notes: also called TIGIT-31-6; 31-6; not shown: V5-His tag
Kd (TIGIT): 145 nM | RU (TIGIT): 107 RU | koff (TIGIT): 0.003 s⁻¹ | kon (TIGIT): 20000 M⁻¹ s⁻¹

B4: TIGIT-31-08 (VHH-V5-His) (VHH)
VHH: EVQLVESGGGLVQPGGSLRLSCAASGFTFSTSWMGWFRQAPGKERELVAARNSGGNTNYADSVKGRFTISADNSKNTAYLQMNSLKPEDTAVYYCAADVWYGSTWRNWGQGTLVTVSS
notes: also called TIGIT-31-8; 31-8; not shown: V5-His tag
Kd (TIGIT): 210 nM | RU (TIGIT): 178 RU | koff (TIGIT): 0.009 s⁻¹ | kon (TIGIT): 40000 M⁻¹ s⁻¹

B5: TIGIT-31-32 (VHH-V5-His) (VHH)
VHH: EVQLVESGGGLVQPGGSLRLSCAASGFTFSTSWMGWFRQAPGKERELVAAMTSGGGTNYADSVKGRFTISADNSKNTAYLQMNSLKPEDTAVYYCAADVWYGSTWRNWGQGTLVTVSS
notes: not shown: V5-His tag
Kd (TIGIT): 102 nM | RU (TIGIT): 145 RU | koff (TIGIT): 0.006 s⁻¹ | kon (TIGIT): 60000 M⁻¹ s⁻¹

B6: TIGIT-31-26 (VHH-V5-His) (VHH)
VHH: EVQLVESGGGLVQPGGSLRLSCAASGFTFDRSWMGWFRQAPGKERELVAAITSGGSTYYADSVKGRFTISADNSKNTAYLQMNSLKPEDTAVYYCAADVWYGSTWRNWGQGTLVTVSS
notes: not shown: V5-His tag
Kd (TIGIT): 158 nM | RU (TIGIT): 59 RU | koff (TIGIT): 0.003 s⁻¹ | kon (TIGIT): 20000 M⁻¹ s⁻¹

B7: TIGIT-31-20 (VHH-V5-His) (VHH)
VHH: EVQLVESGGGLVQPGGSLRLSCAASGFTFSGNWMGWFRQAPGKEREFVAGILSDGRELYADSVKGRFTISADNSKNTAYLQMNSLKPEDTAVYYCAADVWYGSTWRNWGQGTLVTVSS
notes: not shown: V5-His tag
Kd (TIGIT): 281 nM | RU (TIGIT): 45 RU | koff (TIGIT): 0.004 s⁻¹ | kon (TIGIT): 10000 M⁻¹ s⁻¹

B8: TIGIT-31-47 (VHH-V5-His) (VHH)
VHH: EVQLVESGGGLVQPGGSLRLSCAASGFTFSGNWMGWFRQAPGKEREWVVGISSGGTPHYADSVKGRFTISADNSKNTAYLQMNSLKPEDTAVYYCAADVWYGSTWRNWGQGTLVTVSS
notes: not shown: V5-His tag
Kd (TIGIT): 186 nM | RU (TIGIT): 119 RU | koff (TIGIT): 0.004 s⁻¹ | kon (TIGIT): 20000 M⁻¹ s⁻¹

B9: TIGIT-31-01 (VHH-V5-His) (VHH)
VHH: EVQLVESGGGLVQPGGSLRLSCAASGFTFDRSWMGWFRQAPGKEREVVASITSGGSTYYADSVKGRFTISADNSKNTAYLQMNSLKPEDTAVYYCAADVWYGSTWRNWGQGTLVTVSS
notes: also called TIGIT-31-1; 31-1; not shown: V5-His tag
Kd (TIGIT): 169 nM | RU (TIGIT): 122 RU | koff (TIGIT): 0.004 s⁻¹ | kon (TIGIT): 20000 M⁻¹ s⁻¹

B10: TIGIT-31-35 (VHH-V5-His) (VHH)
VHH: EVQLVESGGGLVQPGGSLRLSCAASGFTFSTSWMGWFRQAPGKERELVASITSGGTTNYADSVKGRFTISADNSKNTAYLQMNSLKPEDTAVYYCAADVWYGSTWRNWGQGTLVTVSS
notes: not shown: V5-His tag
Kd (TIGIT): 346 nM | RU (TIGIT): 78 RU | koff (TIGIT): 0.01 s⁻¹ | kon (TIGIT): 30000 M⁻¹ s⁻¹

B11: TIGIT-SC51 (Fc fusion)
VHH: EVQLVESGGGLVQPGGSLRLSCAASGRTEANYAMGWFRQAPGKEREFVAAISWDGGATAYADSVKGRFTISADNSKNTAYLQMNSLKPEDTAVYYCGDYEGHWGQGTLVTVSS
notes: VHH-Fc
EC50 (human TIGIT-Fc [1]): 3.47 nM | OD (450 nm) (human TIGIT-Fc [2]): 0.129 OD

B12: TIGIT-SC68 (Fc fusion)
VHH: EVQLVESGGGLVQPGGSLRLSCAASGHTFRGYAMGWFRQAPGKEREAVAAISWSGDNTYYADSVKGRFTISADNSKNTAYLQMNSLKPEDTAVYYCGDYEGHWGQGTLVTVSS
notes: VHH-Fc
EC50 (human TIGIT-Fc [1]): 6.52 nM | OD (450 nm) (human TIGIT-Fc [2]): 0.607 OD

B13: TIGIT-SC214 (Fc fusion)
VHH: EVQLVESGGGLVQPGGSLRLSCAASGFTFGDSWMGWFRQAPGKEHEFVAAIWRSGTLKAYADSVKGRFTISADNSKNTAYLQMNSLKPEDTAVYYCTSYDAVAGTRDFWGQGTLVTVSS
notes: VHH-Fc
OD (450 nm) (human TIGIT-Fc [2]): 0.828 OD

B14: TIGIT-SC208 (Fc fusion)
VHH: EVQLVESGGGLVQPGGSLRLSCAASGFLFDSYVMGWFRQAPGKEREFVAAIWRSGTLKAYADSVKGRFTISADNSKNTEYLQMNSLKPEDTAVYYCARDDYGDTRRYFQHWGQGTLVTVSS
notes: VHH-Fc
OD (450 nm) (human TIGIT-Fc [2]): 0.544 OD

B15: TIGIT-SC207 (Fc fusion)
VHH: EVQLVESGGGLVQPGGSLRLSCAASGFAFSSYVMGWFRQAPGKEREFVAAIWRSGTLKAYADSVKGRFTISADNSKNTEYLQMNSLKPEDTAVYYCARDDYGDTRRYFQHWGQGTLVTVSS
notes: VHH-Fc
OD (450 nm) (human TIGIT-Fc [2]): 0.504 OD

B16: TIGIT-SC209 (Fc fusion)
VHH: EVQLVESGGGLVQPGGSLRLSCAASGFLFNSYWMGWFRQAPGKEREFVAAIWRSGTLKAYADSVKGRFTISADNSKNTEYLQMNSLKPEDTAVYYCARDDYGDYRIYFQHWGQGTLVTVSS
notes: VHH-Fc
OD (450 nm) (human TIGIT-Fc [2]): 0.56 OD

B17: TIGIT-SC206 (Fc fusion)
VHH: EVQLVESGGGLVQPGGSLRLSCAASGFLFDSYVMGWFRQAPGKEREFVAAIWRSGTLKAYADSVKGRFTISADNSKNTAYLQMNGLKPEDTAVYYCAGVGTDYGDYLFNYWGQGTLVTVSS
notes: VHH-Fc
OD (450 nm) (human TIGIT-Fc [2]): 0.517 OD

B18: TIGIT-30-54 (VHH-V5-His) (VHH)
VHH: EVQLVESGGGLVQAGGSLRLSCAASGFTFRSFGMGWFRQAPGKEREFVASTIWSRGDTYYADSVKGRFTISADNAKNTVYLQMNSLKPEDTAVYYCASSPYGPLYRSTHYYDWGQGTQVTVSS
notes: not shown: V5-His tag
Kd (TIGIT): 1090 nM | RU (TIGIT): 130 RU | koff (TIGIT): 0.04 s⁻¹ | kon (TIGIT): 30000 M⁻¹ s⁻¹

B19: TIGIT-30-58 (VHH-V5-His) (VHH)
VHH: EVQLVESGGGLVQAGGSLRLSCAASGFAFGDSWMGWFRQAPGKEREWVSGISSGGGRTYYADSVKGRFTISADNAKNTVYLQMNSLKPEDTAVYYCAADVWYGSTWRNWGQGTQVTVSS
notes: not shown: V5-His tag
Kd (TIGIT): 1060 nM | RU (TIGIT): 120 RU | koff (TIGIT): 0.01 s⁻¹ | kon (TIGIT): 10000 M⁻¹ s⁻¹

B20: TIGIT-SC64 (Fc fusion)
VHH: EVQLVESGGGLVQPGGSLRLSCAASGFAFSNFGMGWFRQAPGKERELVSAIGWSGASTYYADSVKGRFTISADNSKNTAYLQMNSLKPEDTAVYYCARRGRTIPFDYWGQGTLVTVSS
notes: VHH-Fc
EC50 (human TIGIT-Fc [1]): 9.58 nM | OD (450 nm) (human TIGIT-Fc [2]): 0.197 OD

B21: TIGIT-SC204 (Fc fusion)
VHH: EVQLVESGGGLVQPGGSLRLSCAASGFLFNSYWMVWFRQAPGKEREFVAAIWRSGTLKAYADSVKGRFTISADNSKNTAYLQMNSLKPEDTAVYYCAADVNYGSTWRNWGQGTLVTVSS
notes: VHH-Fc
OD (450 nm) (human TIGIT-Fc [2]): 0.449 OD

B22: TIGIT-SC46 (Fc fusion)
VHH: EVQLVESGGGLVQPGGSLRLSCAASGRTFSNYVMGWFRQAPGKERELVASISSFGSTYYADSVKGRFTISADNSKNTAYLQMNSLKPEDTAVYYCARSGGFLSDWGQGTLVTVSS
notes: VHH-Fc
EC50 (human TIGIT-Fc [1]): 1.37 nM | OD (450 nm) (human TIGIT-Fc [2]): 0.111 OD

B23: TIGIT-SC205 (Fc fusion)
VHH: EVQLVESGGGLVQPGGSLRLSCAASGFTFDRSWMGWFRQAPGKEREFVAAIWRSGTLKAYADSVKGRFTISADNGKNTAYLQMNSLKPEDTAVYYCAEGGTTAWGWFVPWGQGTLVTVSS
notes: VHH-Fc
OD (450 nm) (human TIGIT-Fc [2]): 0.441 OD

B24: TIGIT-SC57 (Fc fusion)
VHH: EVQLVESGGGLVQPGGSLRLSCAASGNTFSGGFMGWFRQAPGKEREWVASVLRGGYTWYADSVKGRFTISADNSKNTAYLQMNSLKPEDTAVYYCTTYRGWGQGTLVTVSS
notes: VHH-Fc
EC50 (human TIGIT-Fc [1]): 1.53 nM | OD (450 nm) (human TIGIT-Fc [2]): 0.0807 OD

B25: TIGIT-31-56 (VHH-V5-His) (VHH)
VHH: EVQLVESGGGLVQPGGSLRLSCAASGRIFRRNSMGWFRQAPGKEREFVAVITRSGGGEVTTYADSVKGRFTINADNSKNTAYLQMNSLKPEDTAVYYCAMSSVTRGSSDWGQGTLVTVST
notes: not shown: V5-His tag
Kd (TIGIT): 382 nM | RU (TIGIT): 301 RU | koff (TIGIT): 0.01 s⁻¹ | kon (TIGIT): 30000 M⁻¹ s⁻¹

B26: TIGIT-SC38 (Fc fusion)
VHH: EVQLVESGGGLVQPGGSLRLSCAASGFTFSEYPMGWFRQAPGKEREFVAVVNWNGDSTYYADSVKGRFTISADNSKNTAYLQMNSLKPEDTAVYYCARGSDWYRYWGQGTLVTVSS
notes: VHH-Fc
EC50 (human TIGIT-Fc [1]): 0.181 nM | OD (450 nm) (human TIGIT-Fc [2]): 0.143 OD

B27: TIGIT-SC31 (Fc fusion)
VHH: EVQLVESGGGLVQPGGSLRLSCAASGRAFESYAMGWFRQAPGKERELVATIGWSGTDYADSVKGRFTISADNSKNTAYLQMNSLKPEDTAVYYCAKGYTSGLSDWGQGTLVTVSS
notes: VHH-Fc
EC50 (human TIGIT-Fc [1]): 1.78 nM | OD (450 nm) (human TIGIT-Fc [2]): 0.125 OD

B28: TIGIT-31-34 (VHH-V5-His) (VHH)
VHH: EVQLVESGGGLVQPGGSLRLSCAASGRSRYGMGWFRQAPGKEREFVSAISWSGISTYYADSVKGRFTISADNSKNTAYLQMNSLKPEDTAVYYCAATQWGSSGWKQARWYDWGQGTLVTVSS
notes: not shown: V5-His tag
Kd (TIGIT): 473000 nM | RU (TIGIT): 25300 RU | koff (TIGIT): 0.2 s⁻¹ | kon (TIGIT): 400 M⁻¹ s⁻¹
